According to PMC4877379:
Residue numbers refer to the chain shown, from its start.

Columns and labels:
[1] = target: T1, CodY (B. cereus INRA C3) (Bacillus cereus INRA C3) (UniProt Q819X8); test: EMSA
T1 sequence: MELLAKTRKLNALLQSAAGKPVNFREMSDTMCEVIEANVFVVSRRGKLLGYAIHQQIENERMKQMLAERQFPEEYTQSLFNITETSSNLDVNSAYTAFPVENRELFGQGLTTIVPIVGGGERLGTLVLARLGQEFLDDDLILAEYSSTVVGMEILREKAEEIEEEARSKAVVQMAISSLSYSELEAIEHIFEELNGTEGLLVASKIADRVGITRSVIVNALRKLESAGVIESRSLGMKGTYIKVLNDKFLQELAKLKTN

[2] = target: T2, CodY (B. cytotoxicus CVUAS 2833) (Bacillus cytotoxicus CVUAS 2833) (UniProt A7GRF8); test: EMSA
T2 sequence: T1 sequence with S78N, I82V, A94E, R103K, E104D, Q133R, S147A, Q251H

Substance | Kd [1] [nM] | Kd [2] [nM]
AAATTATCGATCGTAATCGACAAAATTTTTCTATTTACGCATTAAAAATTTAATGTTTTAATGAACAACATAACTGGTATGACCAGACAGAAAGGATAAGGTTACGCTAATAGGAATTATAGTGAAGTTGTAAGTAACATTATGTTGAAAATATTTTTCGAATAGTCTATTTATTTACAAGAGGTCAAGAATCAAGTTTGTAATAAACGTGTTCTAAGTTTCTGCATAACAAAAGTGAAGTTATTCCGCAATAAAAGTATAAGCGATGTACAGTATAATTTTACCTTTTTTAGTCTAGTAAGGAGTTTGCTGA (double strand) [Phbl-2] | 250 | 
AATAATGATATTAGGATGTTTTGTGAAAAAATCAACAATATAACATATATTACTAAATATATCTACATTTTATGCAATTATACATAACTAAATAAAGGTAAAAAAGTATAAAAAGACCTATTATATTATTCTATAAGTATTTTTTCTAAAATAAAATTTCTCGGTTGAGCTAAAATAGTTATTTTTAACCGTATACACATTAATTTGTAATCATTACAATTACAGAAATGAAATTTACGGATAACTATATTTGTATAATTTTTTTCGGTTCATATTTTTATTTAACAGTAAATTATCGATCGTAATC (double strand) [Phbl-1] | 700 | 
ATCCGAATTCTGTATATGCTATGCATAATTGCATACGGGGTTAAAAATTATATCAATATAATTTTACCGGTTGTTTGCAAGTAGTGTTTTCTGTTGTGATATGTAGATATTTCAATCGATAAAGTGAATCGGATTATATTTTGAAATAAGGACATGAAAGCTTGAAAATAAAGGGAATGAAAATACTTCTTTACGTTATATAAACAGCTGTGTTTAAATGACCTTACAGTACAAAACTTATATGAAAACAAAACGAAATTTCATATTTACGTATGTTGTTTGGTTTAAAATGAATAATATTTTTATGTAATATATTCACTGTGTGAATGTGGGAATTTCGATGAAATAGAAAATTTATACAATATTATTCATACTAAACACATATGAAAAGTTTTATAACAATAAGTAAGTACTGTAGCAATAACAGTTGGGAGAGATGGTTCATACATAGATCACGGTGAGAACGTTCTCTATTTTAACCATCTCAAATTATGGGCAAGAAAATAGAATAATAAAATGCGATAGTAATAGTTGCTAATACATAGGAGGAGTTAAAGTGGATCCGACT (double strand) [Pnhe INRA C3] | 125 | 
CAAGTTTGTAATAAACGTGTTCTAAGTTTCTGCATAACAAAAGTGAAGTTATTCCGCAATAAAAGTATAAGCGATGTACAGTATAATTTTACCTTTTTTAGTCTAGTAAGGAGTTTGCTGATAAAACTAAGAGTAATATTATTAAATTTAAATTAAACAATGTTATGGCAAGATTAACTGTAAGCATTGGTTTATTGATTCTCGCGGTTCTGTAAGTTAAACCGCAATTCTAGGGAAGAATTACACATTTACTATTCATAGGGTGCTTGATTCAAATATAGTTAATAAATTTTTGTTATTTATATTTGAAAAAATAGAGTATCGAAGTGAGAGG (double strand) [Phbl-4] | 700 | 
PcytK-1 |  | > 1000
PcytK-2 | > 1000 | 
PinhA1 INRA C3 | 250 | 
TCTAGTAAGGAGTTTGCTGATAAAACTAAGAGTAATATTATTAAATTTAAATTAAACAATGTTATGGCAAGATTAACTGTAAGCATTGGTTTATTGATTCTCGCGGTTCTGTAAGTTAAACCGCAATTCTAGGGAAGAATTACACATTTACTATTCATAGGGTGCTTGATTCAAATATAGTTAATAAATTTTTGTTATTTATATTTGAAAAAATAGAGTATCGAAGTGAGAGGTAAGTAAAATCCTTACATTCTATTAGAAGTAAAAAATAACGATATTATCCTATCTGAAAGATTTCTCCTTCTTAATCAGTTTACAAAGAGAGAGGTCATACAAGTTATATGAATTAAGTTATAAAAACAATGGTAAAGGAGTGTACGGAAT (double strand) [Phbl-3] | 700 | 
